Source: the supplement of paper PMC9170038

System: MS2 coat protein
Experiment: apparent KD of MS2 coat protein; designed switch direction (-1 OFF switch, 1 ON switch): 1; higher = weaker reporter binding
Summary of the method: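 Transcription of designed RNA switches on Illumina chips was done by stalled E. coli RNA polymerase. SNAP-549-labelled MS2 coat protein was then titrated in doubling steps from 0.7 or 1.5 nM to 3 µM, with steps of 0.8–1.5 h at the lowest and 10–20 min at the highest concentration. The per-design median over clusters of curve-fitted normalised fluorescence is reported as apparent KD.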

[1] = Eterna round: R95, input ligand: FMN 200 uM
[2] = Eterna round: R95, input ligand: microRNA oligo, concentration not stated
[3] = Eterna round: R95, input ligand: none
[4] = input ligand: microRNA oligo, concentration not stated

| Sequence | apparent KD of MS2 coat protein [1] [nM] | apparent KD of MS2 coat protein [2] [nM] | apparent KD of MS2 coat protein [3] [nM] | apparent KD of MS2 coat protein (input ligand: FMN 200 uM) [nM] | apparent KD of MS2 coat protein [4] [nM] | apparent KD of MS2 coat protein (input ligand: none) [nM] |
| --- | --- | --- | --- | --- | --- | --- |
| GGAGCCGAUACUGAGGAUAUUCAUAUUAAAACAUGAGGAUCACCCAUGUAGGCCAGAAGGCCUUGGGAGAAGGCAGAUCGGCUCC [Biseusra - 4] (puzzle: Same State 2) | 19.5 | 301 | 450 |  |  |  |
| AGUCCAGCAAGAGCUGGACAAAAGCAUGUACAUGAGGAUCACCCAUGUUCAUGUACAAGCUUUUUGCUCGUCAAAAG [Mat - hsa-mir-208a - Mod of JL - 72] (puzzle: Sensor for hsa-mir-208a) | 216 | 19.9 | 318 |  |  |  |
| AGUCCUGAAAAGAAAAUACAGAGACAUGUACAUGAGGAUCACCCAUGUCAUGUACAAGUUCUAUGCUCGUCAUAUAA [Sensorship 20 - Jieux - Sensor for hsa-mir-208a] (puzzle: Sensor for hsa-mir-208a) | 22.4 | 15.8 | 21 |  |  |  |
| AUUAUUGAUGCAGGAUAUGAUUAACAUGAGGAUCACCCAUGUGGUGUUGUGAGUAAGGAGAGUGAUCAGAAGGGCAUUUUUUUU [JMF's solution 23] (Eterna round: R96, puzzle: Same State NG 2) |  |  |  | 747 | 435 | 436 |
| GAGGGCGAAAGCAACAUGAGGAUCACCCAUGUUGUCGGAGGGCAGGAUAUCCGGCGAAAGCAGAAGGAGAAGGGUCGAAAAGAA [AK SSNG3-V2-39] (Eterna round: R96, puzzle: Same State NG 3) |  |  |  | 15.5 | 13.1 | 21.4 |
| AGUCCAGCGAAAGCUGGACAAAAGCAUGUACAUGAGGAUCACCCAUGUUCGUGUACAAGCUUUUUGCUCGUCUUAAA [JL mod - D95 - 5] (puzzle: Sensor for hsa-mir-208a) | 536 | 14.6 | 554 |  |  |  |
| GUAGCAUGCAGGCAGGAUAUUCAUAUUAAAACAUGAGGAUCACCCAUGUAGGCCAAAAGGCCUUGGGAGAAGGGCCACAUGCUAC [Xeonanis - 19] (puzzle: Same State 2) | 34.9 | 488 | 842 |  |  |  |
| UGACACACGGCAGGAUAUCGAUUCCAAAGGAAUCGAGAAGGGCCUCAUGUCGUGGAAACGUGACAUGAGGAUCACCCAUGUCGC [Omei SS(NG)1 Cv16] (Eterna round: R96, puzzle: Same State NG 1) |  |  |  | 65 | 3.72 | 64.2 |
| UUAGAAUUGCAAGGAUAUCUAAUUUAGAUAGUAAGAGAAGGUGCUUUAUAGUUACAUGAGGAUCACCCAUGUUUUUUUUUUUAU [JR_SSNG1_Sub060] (Eterna round: R96, puzzle: Same State NG 1) |  |  |  | 42.3 | 36.3 | 49.9 |
| GUAGCAUACCGAGGAUAUUCAUAUUACAUGAGGAUCACCCAUGUUAUUUAGGCCAAAAGGCCUUGGGAGAAGGCGGAAUGCUAC [Xeonanis - 20 Mod8] (Eterna round: R96, puzzle: Same State NG 2) |  |  |  | 9.39 | 9.17 | 18.2 |
| AAGAAAUCCGCAGGAUAUCCUAAGCCGGGCUUAGGAGAAGGGUGGCCACAUGAGGAUCACCCAUGUAAAAGCUGAAUCACAGCC [Aerququ] (Eterna round: R96, puzzle: Same State NG 1) |  |  |  | 237 | 388 | 523 |
| UUGCUCGUGUGAGGAUAUGCCGCCGUUUCGGCUGCAGAAGGUACUCUUUUACAUGAGGAUCACCCAUGUCUCUGUUGUUUCGUG [salish99_SSNG1_r04_937] (Eterna round: R96, puzzle: Same State NG 1) |  |  |  | 252 | 96.4 | 148 |
